By IC50 is commonly meant the concentration that inhibits the measured activity by half.

Substrate in this test: CC chemokine receptor 5 (CCR5), clone 8.5 cDNA, stably expressed on HEK 293 cells (human), P51681
As to the kind of experiment: homologous competition against ^125I-RANTES on CCR5.1 cells, 37° C. Particulars: remark: other sources report otherwise.

Sequence of CC chemokine receptor 5 (CCR5), clone 8.5 cDNA, stably expressed on HEK 293 cells (human), P51681 (P51681 whole entry): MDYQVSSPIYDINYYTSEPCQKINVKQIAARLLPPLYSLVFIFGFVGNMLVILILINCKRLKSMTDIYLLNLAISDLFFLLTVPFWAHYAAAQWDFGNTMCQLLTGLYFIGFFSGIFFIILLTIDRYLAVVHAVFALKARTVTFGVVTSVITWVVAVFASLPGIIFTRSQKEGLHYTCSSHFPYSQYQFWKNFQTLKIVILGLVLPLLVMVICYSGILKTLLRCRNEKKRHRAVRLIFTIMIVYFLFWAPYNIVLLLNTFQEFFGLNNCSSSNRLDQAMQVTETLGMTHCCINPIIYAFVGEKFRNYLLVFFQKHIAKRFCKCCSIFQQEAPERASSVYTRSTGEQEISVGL

B1: RANTES, P13501 24-91 (ligand, human, UniProt P13501 24-91, looked up)
chain: SPYSSDTTPCCFAYIARPLPRAHIKEYFYTSGKCSNPAVVFVTRKNRQVCANPEKKWVREYINSLEMS
As to B1, the IC50 was 80 nM.
